Experimental data from patent US20050222400, “Aptamer constructs” (published 2005).

B1: aptamer 70.15 (ssRNA)
RNA: AGCUCGAGCUCGAAUUCCCUACGAACCCAGGAGAUAAGGGGGAAAACUCUGGAAAACGGGCCCGGAUCCGUC
B2: aptamer 80.55,65 (ssRNA)
RNA: AGCUCGAGCUCGAAUUCAUUUAAUUCCAUAAUGGCUCACCACAAGGGGAACGUUGAUGAAAUAGGGCCCGGAUCCGUC
B3: aptamer 70.28t34 (ssRNA)
RNA: AGCUCGAGCUCGAAUUCGGGAACCGGACGGGUGAGAACCGAGACAAACACCGGGCCCGGAUCCGUC
B4: aptamer 1.1 (ssRNA)
RNA: AGCUCGAGCUCGAAUUCGGGAGAUUCCGUUUUCAGUCCGGGAAAAACUGAAGGGCCCGGAUCCGUC
B5: aptamer 70.8,13 (ssRNA)
RNA: AGCUCGAGCUCGAAUUCAAAGAGAUCUGGCAGUGUCACAACCAGGAAAAAGACACGACGAACGGGCCCGGAUCCGUC
B6: aptamer 70.28 (ssRNA)
RNA: AGCUCGAGCUCGAAUUCACAAGAACCGGACCGGGUGAGAACCGAGACAAACACCCACCAAGAGGGCCCGGAUCCGUC

Tests used:
[1] = biological target: T1, HIV-1 reverse transcriptase (RT) (HIV-1, UniProt P04585;P04585 P04585:588-1147,P04585:588-1027); assay: EMSA; 50 mM KCl, 25 mM NaCl, 5% glycerol, BSA, 25 C
Protocol: (§1) Radiolabeled, processed RNA aptamers were gel purified and eluted in 500 mM NH₄OAc/1 mM EDTA/0.2% SDS. RNA was then treated with phenouchloroform and ethanol precipitated. Electrophoretic mobility shift assays were performed by incubating 10 fmol purified RNA aptamer with increasing amounts of purified HIV-1 RT at 25° C. in 10 μl of buffer containing 50 mM KCl, 25 mM NaCl, 5% glycerol, 300 μg/ml BSA. The reaction products were electrophoresed on native polyacrylamide gels. Dried gels were exposed to a phosphorimager screen and Kd calculated by using the ImageQuant software. To determine the binding strengths, the percentage of band shift observed with increasing concentrations of RT (1 nM to 500 nM), with respect to the no protein control lane, was first determined. The Kd values were determined by fitting data from three independent experiments to a dose response curve using nonlinear regression (Cann 1996) (GraphPad Software Inc.).
Therefore, the ability of each of the 10 selected RNA aptamers to bind recombinant purified HIV-1 RT was evaluated in vitro via an electrophoretic mobility shift assay (EMSA) and the dissociation constants determined for each individual aptamer in its processed form. In vitro transcription of the primary transcripts, with T3 RNA polymerase was followed by gel purification of the processed aptamers. The aptamer RNAs were incubated with increasing concentrations of purified recombinant HIV-1 RT, the reactions were resolved on a non-denaturing polyacrylamide gel (FIG. 3) and Kd values calculated based on the degree of band shift caused by the formation of RNA-protein complexes (see Methods section).

[2] = biological target: T1, HIV-1 reverse transcriptase (RT); assay: inhibition; RT activity, 80 mM KCl, 6 mM MgCl2, pH 8.0, 37 C
Protocol: (§2) In vitro RT inhibition. To determine the IC₅₀ values, self-cleaved RNA aptamers were gel purified and eluted in 500 mM NH₄OAc/1 mM EDTA/0.2% SDS. RNA was then treated with phenol/chloroform and ethanol precipitated. RT reactions (50 μl) contained 80 mM KCl, 50 mM Tris-Cl (pH 8.0), 6 mM MgCl₂, 1 mM dithiothreitol (DTT), 0.1 mg/ml BSA, 10 μM […], 25 μM each of the remaining three dNTPs, and a range of concentrations of RNA aptamers (1 nM to 1000 nM). Reactions were incubated at 37° C. for 15 min. Reactions initiated by the addition of 25 ng of purified HIV-1 RT and at the end of the reaction, aliquots were spotted onto DE81 filter paper and washed with 2×SSC (30 mM Sodium Citrate, 300 mM NaCl pH 7.0). Dried filters were then counted and individual IC₅₀s were determined by fitting results to a dose-response curve using nonlinear regression (GraphPad Software Inc., San Diego, Calif.).
(§3) Next, the ability of each of the 10 selected RNA aptamers to inhibit recombinant purified HIV-1 RT was evaluated in vitro and the degree of inhibition (IC₅₀) by each aptamer was determined. In vitro transcription of the primary transcripts with T3 RNA polymerase was followed by gel purification of the processed aptamers. The IC₅₀s calculated ranged from 89 nM to >1000 nM (Table 1). Six RNA aptamers were selected for further studies, to test their effectiveness in inhibiting HIV-1 replication.

[3] = biological target: T1, HIV-1 reverse transcriptase (RT); assay: EMSA; 50 mM KCl, 25 mM NaCl, 5% glycerol, BSA, 25 C; processed RNA with flanks; settings: pseudoknot-like potential stated for some aptamers
Protocol: as §1
Therefore, the ability of each of the 10 selected RNA aptamers to bind recombinant purified HIV-1 RT was evaluated in vitro via an electrophoretic mobility shift assay (EMSA) and the dissociation constants determined for each individual aptamer in its processed form. In vitro transcription of the primary transcripts, with T3 RNA polymerase was followed by gel purification of the processed aptamers. […]

[4] = biological target: T1, HIV-1 reverse transcriptase (RT); assay: inhibition; RT activity, 80 mM KCl, 50 mM Tris pH 8.0, 6 mM MgCl2, 37 C; settings: pseudoknot-like potential stated for some aptamers
Protocol: as §2, §3

Binder | Kd [1] [nM] | IC50 [2] [nM] | other results
B1 | 63 | 159 | 
B2 | 129 | 143 | 
B3 | 219 | 327 | 
B4 | 270 | 607 | 
B5 |  |  | Kd [3]: 27 nM; IC50 [4]: 89 nM
B6 |  |  | Kd ([1]; pseudoknot): 201 nM; IC50 ([2]; pseudoknot): 254 nM
